# Where two headings read alike, the source gives them in different places.
# B1: CHI-CDH6-1 (antibody, human IgG1, kappa, V domains shown)
# VH: QVQLQQPGAELVRPGSSVKLSCKASGYTFTNYWMHWVKQRPIEGLEWIGDIDPSHSETHYTQKFKDKATLTVDKSSSTAYMQLSSLTSEDSAVYYCARGDLGRFDYWGQGTTLTVSS
# VL: DIVLTQSPASLAVSLGQRATISCRASESVSIHGTHLMHWYQQKSGQPPKLLIYAASNLESGVPARFSGSGSETDFTFNIHPVEEEDAATYFCQQSFEDPWTFGGGTKLEIKR
# notes: also called CHI-hCDH6-1; CH1-CDH6-1
# B2: CHI-CDH6-6 (antibody, human IgG1, kappa, V domains shown)
# VH: EVQLQQSGPELVKPGDSVKMSCKASGYTFTDYYMAWVRQSHRKSLEWIGYIFPNSGGTDYSQKFKGKATLTVDKSSSTVYMELHSLTSEDSAVYYCARELGADYGDYYAMDHWGQGTSVSVSS
# VL: DIQMTQSPASLSASVGETVTITCRASENIDSYLAWYQQKQGKSPQLLVYSATLLADGVPSRFSGSGSGTQYSLKINSLKSEDVARYYCQHYYRTPPTFGSGTKLEIKR
# notes: also called CHI-hCDH6-6; chimeric antibody of murine CDH6-6
# B3: hCDH6-1-H2L3 (antibody, V domains shown)
# VH: EVQLVQSGAEVKKPGSSVKVSCKASGYTFTNYWMHWVRQAPGQGLEWMGDIDPSHSETHYTQKFKDRVTITVDKSTSTAYMELSSLRSEDTAVYYCARGDLGRFDYWGQGTTVTVSS
# VL: DIQMTQSPSSLSASVGDRVTITCRASESVSIHGTHLMHWYQQKPGKPPKLLIYAASNLESGVPSRFSGSGSETDFTFTISSLQPEDIATYYCQQSFEDPWTFGGGTKVEIK
# notes: Humanized
# B4: hCDH6-6-H2L2 (antibody, V domains shown)
# VH: EVQLVQSGAEVKKPGASVKVSCKASGYTFTDYYMAWVRQAPGQGLEWMGYIFPNSGGTDYSQKFKGRVTLTVDKSTSTVYMELSSLRSEDTAVYYCARELGADYGDYYAMDHWGQGTTVTVSS
# VL: DIQMTQSPSSLSASVGDRVTITCRASENIDSYLAWYQQKPGKSPKLLVYSATLLADGVPSRFSGSGSGTDYTLTISSLQPEDFATYYCQHYYRTPPTFGQGTKLEIK
# notes: Humanized
# Key:
# [1] = molecular target: T1, his-tagged human CDH6 extracellular region protein (hCDH6 ECD-his) (human, UniProt P55285 19-615); experiment: ELISA, coated antigen
# T1 construct: also called Human CDH6-his; hCDH6-his; not shown: his tag
# T1 sequence: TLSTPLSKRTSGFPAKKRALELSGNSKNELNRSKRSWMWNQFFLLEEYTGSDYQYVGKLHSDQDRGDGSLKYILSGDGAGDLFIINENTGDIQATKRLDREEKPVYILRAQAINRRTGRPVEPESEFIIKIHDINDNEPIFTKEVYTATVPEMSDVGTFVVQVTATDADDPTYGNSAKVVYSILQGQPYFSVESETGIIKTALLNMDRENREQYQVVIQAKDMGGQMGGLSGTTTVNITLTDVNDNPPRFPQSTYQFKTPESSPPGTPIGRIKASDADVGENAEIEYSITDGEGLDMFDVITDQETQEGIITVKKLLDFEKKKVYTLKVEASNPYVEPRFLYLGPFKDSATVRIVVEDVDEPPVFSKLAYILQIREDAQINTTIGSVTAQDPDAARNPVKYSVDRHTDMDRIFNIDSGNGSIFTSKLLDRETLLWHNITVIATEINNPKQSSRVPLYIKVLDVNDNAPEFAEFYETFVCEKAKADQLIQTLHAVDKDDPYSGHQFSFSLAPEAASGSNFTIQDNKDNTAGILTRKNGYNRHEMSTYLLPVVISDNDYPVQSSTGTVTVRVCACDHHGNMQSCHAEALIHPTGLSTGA
# [2] = molecular target: T1, his-tagged human CDH6 extracellular …; experiment: SPR Biacore, antibody captured on Protein A
# Protocol: (§1) The affinity of the antibody for the antigen was determined by a multi-cycle kinetic method using a BIAcore 8K instrument. In each cycle, the antibody to be tested was captured using a Protein A chip (purchased from GE, Cat. No. 29-1275-56), and then the antigen human CDH6 protein (hCDH6-his, conventionally synthesized) was injected. The association and dissociation processes of the antibody with the antigen protein were recorded, and finally, the chip was regenerated using Glycine pH 1.5, wherein the mobile phase was HBS-EP+ (10 mM HEPES, 150 mM NaCl, 3 mM EDTA, 0.05% surfactant P20, and 1 mM Ca), the flow rate was 30 μL/min, the association time was 240 s, the dissociation time was 300 s, the regeneration time was 30 s, the detection temperature was 25° C., and the antigen concentration was 31.25-1000 nM. The data were analyzed using Biacore 8K analysis software (version No. 2.0) based on the 1:1 binding model to fit the antibody-antigen binding kinetic parameters, including the association rate constant ka, the dissociation rate constant kd, and the equilibrium dissociation constant KD. The affinity values of the control antibody DS-H01L02 were undetectable. Antibodies not shown in the table had undetectable affinity values.
# Four hCDH6-1 humanized antibodies with fewer back mutations were selected, and the affinity for human CDH6 protein was further confirmed using Biacore.
# [3] = molecular target: T1, his-tagged human CDH6 extracellular …; experiment: ELISA, coated antigen; remark: listed apart in the source
# Method in brief: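 Plates coated overnight at 4 °C with his-tagged CDH6 ECD (human; also cyno and murine, residues 19-615) at 1 μg/mL. Chimeric antibody dilutions bound 2 h at 37 °C; TMB read-out at OD450 nm, EC50 from fitted curves.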
# [4] = molecular target: T1, his-tagged human CDH6 extracellular …; experiment: SPR Biacore, antibody captured on Protein A; remark: listed apart in the source
# Protocol: as §1
# Four hCDH6-6 humanized antibodies with fewer back mutations were selected, and the affinity for human CDH6 protein was further confirmed using Biacore.
EC50 [1],Max OD450 [1],Kd [2],koff [2],kon [2],EC50 [3],Max OD450 [3],Kd [4],koff [4],kon [4],Binder
0.032 nM,2.59 OD450,11.4 nM,0.00504 s⁻¹,442000 M⁻¹ s⁻¹,–,–,–,–,–,B1
–,–,–,–,–,0.028 nM,2.02 OD450,87.1 nM,0.00424 s⁻¹,48700 M⁻¹ s⁻¹,B2
0.029 nM,2.61 OD450,18 nM,0.00821 s⁻¹,457000 M⁻¹ s⁻¹,–,–,–,–,–,B3
–,–,–,–,–,0.026 nM,1.97 OD450,89.8 nM,0.00468 s⁻¹,52100 M⁻¹ s⁻¹,B4
